According to patent publication US20240409645A1 (DUALYX, published 2024):

T1: cynomolgus monkey IL-2Rβ/CD122 subunit (cynomolgus monkey, UniProt Q38J85 27-239, limits assumed)
T1 construct: also called Cyno IL-2R subunit
T1 sequence (looked up): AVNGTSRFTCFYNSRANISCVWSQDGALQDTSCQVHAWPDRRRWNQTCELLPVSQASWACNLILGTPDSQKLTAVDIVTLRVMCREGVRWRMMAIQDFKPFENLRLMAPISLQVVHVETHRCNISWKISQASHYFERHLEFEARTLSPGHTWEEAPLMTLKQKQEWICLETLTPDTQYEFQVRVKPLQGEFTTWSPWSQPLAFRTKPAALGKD

T2: human interleukin-2 receptor β-chain (IL-2Rβ; CD122), recombinant protein (human, UniProt P14784 27-240)
T2 construct: also called human IL-2R subunit CD122
T2 sequence: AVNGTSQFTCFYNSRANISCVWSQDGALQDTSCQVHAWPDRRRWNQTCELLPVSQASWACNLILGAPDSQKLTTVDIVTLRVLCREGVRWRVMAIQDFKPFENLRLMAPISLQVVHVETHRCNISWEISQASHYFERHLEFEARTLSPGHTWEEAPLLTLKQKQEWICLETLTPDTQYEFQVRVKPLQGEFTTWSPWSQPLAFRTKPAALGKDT

T3: human IL-2Rα (human, UniProt P01589 22-240, limits assumed)
T3 construct: recombinant protein; also called hu IL-2R; human IL-2Ra
T3 sequence: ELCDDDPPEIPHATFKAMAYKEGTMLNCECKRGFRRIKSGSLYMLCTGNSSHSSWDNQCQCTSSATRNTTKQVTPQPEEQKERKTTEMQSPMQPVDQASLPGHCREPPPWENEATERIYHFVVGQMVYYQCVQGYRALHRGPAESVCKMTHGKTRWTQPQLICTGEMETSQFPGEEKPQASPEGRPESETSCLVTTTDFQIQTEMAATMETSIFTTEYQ

T4: mouse IL-2Rα (mouse, UniProt P01590 22-236, limits assumed)
T4 construct: recombinant protein; also called mo IL-2R; mouse IL-2Ra
T4 sequence (looked up): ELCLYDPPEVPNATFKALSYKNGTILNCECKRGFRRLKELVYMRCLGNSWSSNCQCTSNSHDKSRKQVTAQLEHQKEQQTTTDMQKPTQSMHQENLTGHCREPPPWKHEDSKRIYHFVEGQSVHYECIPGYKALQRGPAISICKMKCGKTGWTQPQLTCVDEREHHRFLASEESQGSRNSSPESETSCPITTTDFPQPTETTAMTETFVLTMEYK


Columns and labels:
[1] = biological target: T1, cynomolgus monkey IL-2Rβ/CD122 subunit; assay: ELISA, bivalent VHH-hFc
Protocol: (§1) Monospecific monovalent and bivalent IL-2Rα-, IL-2Rβ- and IL-2Rγ-specific antibodies that were selected on human IL-2R subunits, were evaluated for their cross-reactivity in an ELISA. Human and cynomolgus monkey receptor subunits (Acrobiosystems, KactusBiosystems) were coated at 1 μg/mL in PBS (pH 7.4) in a Maxisorp plate (Nunc) and incubated overnight at 4° C. The plates were further washed with PBS-Tween pH 7.4 and incubated with 1% cascin/PBS-Tween blocking solution for 1 hour shaking at 400 rpm. Subsequently, the plate was washed three times with PBS-Tween pH 7.4, after which the test antibodies diluted in 0.1% casein/PBS-Tween were added to the plate and incubated for 1 hour. The plate was again washed three times, after which goat anti-human IgG Fc (HRP) detection antibody (abcam) was added to the plate and incubated for 30 min. The colouring reaction was performed with TMB (Sigma-Aldrich) and stopped with 0.5N H₂SO₄.
(§2) Absorbance was measured at 450 nm with the reference wavelength of 620 nm using spectrophotometer. Final analysis and graphic output were performed with GraphPad Prism version 8 (GraphPad Software). The dose-response binding curves were fit to a nonlinear regression model (log (agonist) vs. response with a variable slope (four parameters)).

[2] = biological target: T2, human interleukin-2 receptor β-chain …; assay: ELISA, bivalent VHH-hFc
Protocol: as §1, §2

[3] = biological target: T1, cynomolgus monkey IL-2Rβ/CD122 subunit; assay: ELISA, bivalent; EC50 cyno vs human subunit
Protocol: as §1, §2

[4] = biological target: T3, human IL-2Rα; assay: ELISA, P.E. on coated antigen
Outline: (§3)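 Plates were coated overnight at 4° C with human or mouse IL-2R chain protein, and free sites blocked for 1 hour in 4% Marvel in PBS. Periplasmic extracts diluted 1:5 in 1% Marvel/PBS then bound for 1 hour, with specificity assessed from 450 nm absorbance relative to negative controls.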

[5] = biological target: T4, mouse IL-2Rα; assay: ELISA, P.E. on coated antigen
Outline: as §3

[6] = biological target: T3, human IL-2Rα; assay: SPR, P.E. on immobilised antigen
Outline: (§4)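 Recombinant receptor was amine-coupled in acetate buffer onto a CM5 carboxymethyl dextran chip at approximately 2500 RU. VHH-containing periplasmic extracts were injected at 30 uL/min, and dissociation was followed for 120s to give off-rates.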

[7] = biological target: T4, mouse IL-2Rα; assay: SPR, P.E. on immobilised antigen
Outline: as §4

Binder | EC50 [1] [nM] | EC50 [2] [nM] | Fold change [3] [fold] | OD (PE binding ELISA) [4] [OD450 nm] | OD (PE binding ELISA) [5] [OD450 nm] | koff [6] [s⁻¹] | koff [7] [s⁻¹] | binding result [1]
16-MP02B08 VHH-hFc, monospecific bivalent (Fc fusion, IgG1 Fc LALA-PG; not shown: human IgG1 CH2 and CH3 domains (Fc)) EVQLVESGGGLVQAGGSLRLSCAASGRAIENYPVGWFRQAPGKEREFVAAITWISGSTLYADSVKGRFTISRDNAKNTVYLQMSSLKPEDTALYYCAAALKTITRGQNDYSYWGQGTQVTVSS | 0.23 | 0.245 | 0.9 |  |  |  |  | 
FJ1427_P035MP05C09 (VHH, periplasmic extract; also called clone nr) VHH: QLQLVESGGGLVQAGGSLRLSCAASGFTFDGYAIGWFRQAPGKEREGVSYITGSDGSTYYADSVKGRFTISSNNAKNTVYLHMNSLKPDDAAVYYCAIDRLGSRGAYVPIWWRSSDMDLWGKGTLVTVSS |  |  |  | 0.366 | 0.059 | 0.00609 | 0.00435 | 
FJ1427_P035MP05B08 (VHH, periplasmic extract; also called clone nr) VHH: QLQLVESGGGLVQAGGSLRLSCVAHGLTFDGYAIGWFRQAPGKELEGVSYITGSDGSRYYADSVKGRFTISSDVAKNTVYLHMNNLKPDDAARYYCAVDRLGSRGAYVSAWWRSSDMDLWGKGTLVTVSS |  |  |  | 1.88 | 0.057 | 0.00253 | 0.00608 | 
12-MP05B12 (VHH, periplasmic extract; also called FJ1427_P035MP05B12) VHH: QVQLVESGGGLVQAGGSLRLSCAASGFTFDGYAIGWFRQAPGKEREGVSYITGSDGSTYYADSVKGRFTISSNNAKNTVYLHMNSLKPDDAAVYYCAIDRLGSRGAYVPIWWRSSDMDLWGKGTLVTVSS |  |  |  | 2.14 | 0.936 | 0.000222 | 0.000547 | 
FJ1427_P035MP05C10 (VHH, periplasmic extract; also called clone nr) VHH: QLQLVESGGGLVQTGGSLRLSCSTSGFTFDGYAIGWFRQAPGKEPEGVSYITGSDGSTYYADSVKGRFTISSDNAKNTVYLHMNSLKPDDAAVYYCAIDRLGSGGAYVPIWWRSSDMDLWGKGTLVTVSS |  |  |  | 0.63 | 0.071 | 0.00406 | 0.00403 | 
20-MP03F10 VHH-hFc, monospecific bivalent (Fc fusion, IgG1 Fc LALA-PG; not shown: human IgG1 CH2 and CH3 domains (Fc)) EVQLVESGGGLVQAGGSLRLSCAASGRDFSSYAMGWFRQAPGKEREFVVAITWTKRSTDFPDSVKGRFTISRDNAKNTVYLDMNSLKPEDTAVYYCASARGLPVTPLGDIIYWGEGTLVTVSS |  | 0.218 |  |  |  |  |  | no binding
FJ1427_P035MP01C11 (VHH, periplasmic extract; also called clone nr; 83) VHH: QVQLVESGGGLVQAGGSLRLSCAASGGTFRTRNMGWFRRAPGKEREFVAAVSWNVDNKLYAGSVKGRFTISRDNGRNMVYLQMNSLKPEDTAVYYCAADNIPLSSDMRPTATEYDYWGQGTQVTVSS |  |  |  | 2.78 | 0.045 | 0.000556 | 0.351 | 
FJ1427_P035MP05B05 (VHH, periplasmic extract; also called clone nr) VHH: EVQLVESGGGLVQAGGSLRLSCAASGFTFDGYAVGWFRQAPGKEPEGVSYITGSDGVTYYIDSVKGRFTISSDNAKRTVYLQMNTLKPEDTAVYYCAVDRLGSQGRYASSWWRAGDMDFWGKGTLVTVSS |  |  |  | 2.15 | 0.045 | 0.00103 | 0.0114 | 
19-MP03F08 VHH-hFc, monospecific bivalent (Fc fusion, IgG1 Fc LALA-PG; not shown: human IgG1 CH2 and CH3 domains (Fc)) EVQLVESGGGLVQTGGSLRLSCAASGGTFSRDAMAWFRQVPGKEREFVALISWSGATTNYADSVKGRFAISRDNGKNTVYLQMNRLKPADTAIYYCAADRRPMGSRSYFEPTEYDDWGQGTQVTVSS | 0.603 | 0.794 | 0.8 |  |  |  |  | 
FJ1427_P035MP05A05 (VHH, periplasmic extract; also called clone nr; 417) VHH: QLQLVESGGGLVQAGGSLRLSCAASGLTFDGYAIGWFRQASGKEREGVSYINGRDGSTFYADSVKGRFIISSDNAKNTVDLQMNSLKPDDAAVYYCAVDRLGSRGAYVSTWWRPPDMDLWGKGTLVTVSP |  |  |  | 1.86 | 0.052 | 0.00341 | 0.0172 | 
FJ1427_P035MP05C06 (VHH, periplasmic extract; also called clone nr) VHH: QVQLVESGGGLVQAGGSLRLSCAASGLTFDGYAIGWFRQASGKEREGVSYINGRDGSTFYTDSVKGRFIISSDNAKNTVDLQMNSLKPDDAAVYYCAVDRLGSRGAYVSSWWRSPDMDLWGKGTLVTVSS |  |  |  | 2.43 | 0.071 | 0.000659 | 0.00311 | 
FJ1427_P035MP05D04 (VHH, periplasmic extract; also called clone nr) VHH: QLQLVESGGGLVQAGGSLRLSCAASGLTFDGYAIGWFRQASGKEREGVSYINGRDGSTFYADSVKGRFIISSDNAKNTVDLQMNSLNPDDAAVYYCAVDRLGSRGAYVSSWWRSPDMDLWGKGTLVTVSS |  |  |  | 1.91 | 0.045 | 0.00224 | 0.0122 | 
FJ1427_P035MP05H08 (VHH, periplasmic extract; also called clone nr) VHH: QLQLVESGGGLVQAGGSLRLSCAASGLTFDGYAIGWFRQASGKEREGVSYINGRDGSTFYADSVKGRFIISSDNAKNTVDLQMNSLKPDDAAVYYCAVDRLGSRGAYVSTWWRSPDMDLWGKGTLVTVSS |  |  |  | 2.17 | 0.05 | 0.00278 | 0.0129 | 
17-MP02C09 VHH-hFc, monospecific bivalent (Fc fusion, IgG1 Fc LALA-PG; also called anti-IL-2Rβ Ab 17; not shown: human IgG1 CH2 and CH3 domains (Fc)) QVQLQESGGGLVQAGGSLRLSCVASGSVSSINGMAWYRQGADNQRVLVAAISRVGNTAYGDSVKGRFTISRQNARNTVYLQMNSLKPEDTAVYYCNADSWGGDDYWGQGTQVTVSS | 0.184 | 0.124 | 1.5 |  |  |  |  | 
18-MP03C03 VHH-hFc, monospecific bivalent (Fc fusion, IgG1 Fc LALA-PG; not shown: human IgG1 CH2 and CH3 domains (Fc)) QVQLVESGGGLVQPGGSLRLSCAISGGTLDSYGIGWVRQAPGKQREGVSCMSRSDDRTYYADSVKGRFTISKDSAKNTVYLQMTSLKPEDTAVYYCAAVDAYGCSLVQPTTYDFWGLGTQVTVSS | 0.3 | 0.294 | 1 |  |  |  |  | 
15-MP02E06 VHH-hFc, monospecific bivalent (Fc fusion, IgG1 Fc LALA-PG; also called anti-IL-2Rβ Ab 15; not shown: human IgG1 CH2 and CH3 domains (Fc)) QVQLVESGGGSVQPGGSLRLSCAASGFTFSNYAMSWVRQAPGKGLEWVASITGFGRGTDYADSVKGRFTISRDNAEDTLYLQMNSLKPEDTAVYYCAKYSSSTYYPPTPARGRDYRGQGTQVTVSS | 0.895 | 0.209 | 4.3 |  |  |  |  | 
